According to US20250304666A1 (ALCHEMAB THERAPEUTICS, published 2025):

Legend:
[1] = molecular target: T1, reduced CFH (Homo sapiens (Human), UniProt P08603 860-1231, limits assumed); assay: ELISA on reduced CFH after heating the mAb (70 C, 1 h, as Figure 16)
T1 construct: also called CFH (reduced)
T1 sequence: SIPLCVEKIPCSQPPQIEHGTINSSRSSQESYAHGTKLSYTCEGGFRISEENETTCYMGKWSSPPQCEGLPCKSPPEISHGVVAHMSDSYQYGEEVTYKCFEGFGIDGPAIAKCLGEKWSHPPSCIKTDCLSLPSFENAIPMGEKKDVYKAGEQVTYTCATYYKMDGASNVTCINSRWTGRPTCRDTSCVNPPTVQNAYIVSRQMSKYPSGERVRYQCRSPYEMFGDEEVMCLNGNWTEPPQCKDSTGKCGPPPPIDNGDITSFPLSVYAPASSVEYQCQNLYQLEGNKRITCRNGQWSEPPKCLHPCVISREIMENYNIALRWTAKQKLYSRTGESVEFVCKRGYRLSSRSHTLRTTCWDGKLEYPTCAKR

[2] = molecular target: T1, reduced CFH; assay: ELISA, reduced antigen
[3] = molecular target: T2, reduced CFHR2 (UniProt P36980 19-270, limits assumed); assay: ELISA, reduced antigen
T2 sequence (looked up): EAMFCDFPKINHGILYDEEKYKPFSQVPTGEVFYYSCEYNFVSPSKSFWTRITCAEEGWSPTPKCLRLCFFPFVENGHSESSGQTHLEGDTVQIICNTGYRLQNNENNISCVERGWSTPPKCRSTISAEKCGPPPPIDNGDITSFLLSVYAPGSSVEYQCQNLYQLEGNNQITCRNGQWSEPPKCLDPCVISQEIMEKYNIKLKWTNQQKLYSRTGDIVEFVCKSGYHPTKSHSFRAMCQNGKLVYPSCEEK

[4] = molecular target: T3, reduced CFHR5 (UniProt Q9BXR6 19-569, limits assumed); assay: ELISA, reduced antigen
T3 sequence (looked up): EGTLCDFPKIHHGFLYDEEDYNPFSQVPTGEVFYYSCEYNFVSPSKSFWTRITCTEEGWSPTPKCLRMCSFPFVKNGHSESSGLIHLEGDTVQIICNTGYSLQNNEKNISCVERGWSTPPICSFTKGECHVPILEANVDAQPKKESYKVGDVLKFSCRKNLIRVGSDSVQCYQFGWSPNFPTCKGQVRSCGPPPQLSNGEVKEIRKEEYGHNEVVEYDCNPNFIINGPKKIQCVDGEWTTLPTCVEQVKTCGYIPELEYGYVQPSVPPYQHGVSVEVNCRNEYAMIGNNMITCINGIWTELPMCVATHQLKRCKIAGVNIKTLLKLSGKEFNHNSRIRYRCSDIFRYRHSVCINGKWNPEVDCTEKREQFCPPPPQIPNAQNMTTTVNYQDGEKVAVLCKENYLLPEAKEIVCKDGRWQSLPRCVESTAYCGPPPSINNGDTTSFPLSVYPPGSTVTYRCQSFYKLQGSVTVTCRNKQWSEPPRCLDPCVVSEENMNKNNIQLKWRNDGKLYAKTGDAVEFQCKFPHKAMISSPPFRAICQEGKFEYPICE

[5] = molecular target: T4, reduced CFHR3 (UniProt Q02985 19-330, limits assumed); assay: ELISA, reduced antigen
T4 sequence (looked up): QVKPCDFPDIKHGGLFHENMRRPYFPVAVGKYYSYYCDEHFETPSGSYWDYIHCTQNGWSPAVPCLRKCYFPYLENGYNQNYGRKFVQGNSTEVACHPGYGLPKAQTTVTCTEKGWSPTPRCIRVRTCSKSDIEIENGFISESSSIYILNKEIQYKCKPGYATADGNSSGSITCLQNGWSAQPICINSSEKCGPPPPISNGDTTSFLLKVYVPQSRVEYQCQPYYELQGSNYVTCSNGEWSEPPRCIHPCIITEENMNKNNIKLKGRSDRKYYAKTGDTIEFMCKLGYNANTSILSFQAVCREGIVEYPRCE

[6] = molecular target: T5, reduced CFHR1 (UniProt Q03591 19-330, limits assumed); assay: ELISA, reduced antigen
T5 sequence (looked up): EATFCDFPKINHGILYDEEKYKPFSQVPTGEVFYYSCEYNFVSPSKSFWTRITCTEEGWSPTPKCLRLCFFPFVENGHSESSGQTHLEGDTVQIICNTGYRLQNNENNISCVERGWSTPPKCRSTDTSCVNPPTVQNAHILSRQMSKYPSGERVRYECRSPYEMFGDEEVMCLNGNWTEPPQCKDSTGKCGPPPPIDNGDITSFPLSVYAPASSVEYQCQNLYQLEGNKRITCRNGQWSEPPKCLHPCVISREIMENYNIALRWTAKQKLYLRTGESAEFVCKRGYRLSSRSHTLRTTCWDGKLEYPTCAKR

[7] = molecular target: T6, non-reduced CFH; assay: ELISA, non-reduced antigen
T6 construct: also called CFH (NON-REDUCED)
T6 chain: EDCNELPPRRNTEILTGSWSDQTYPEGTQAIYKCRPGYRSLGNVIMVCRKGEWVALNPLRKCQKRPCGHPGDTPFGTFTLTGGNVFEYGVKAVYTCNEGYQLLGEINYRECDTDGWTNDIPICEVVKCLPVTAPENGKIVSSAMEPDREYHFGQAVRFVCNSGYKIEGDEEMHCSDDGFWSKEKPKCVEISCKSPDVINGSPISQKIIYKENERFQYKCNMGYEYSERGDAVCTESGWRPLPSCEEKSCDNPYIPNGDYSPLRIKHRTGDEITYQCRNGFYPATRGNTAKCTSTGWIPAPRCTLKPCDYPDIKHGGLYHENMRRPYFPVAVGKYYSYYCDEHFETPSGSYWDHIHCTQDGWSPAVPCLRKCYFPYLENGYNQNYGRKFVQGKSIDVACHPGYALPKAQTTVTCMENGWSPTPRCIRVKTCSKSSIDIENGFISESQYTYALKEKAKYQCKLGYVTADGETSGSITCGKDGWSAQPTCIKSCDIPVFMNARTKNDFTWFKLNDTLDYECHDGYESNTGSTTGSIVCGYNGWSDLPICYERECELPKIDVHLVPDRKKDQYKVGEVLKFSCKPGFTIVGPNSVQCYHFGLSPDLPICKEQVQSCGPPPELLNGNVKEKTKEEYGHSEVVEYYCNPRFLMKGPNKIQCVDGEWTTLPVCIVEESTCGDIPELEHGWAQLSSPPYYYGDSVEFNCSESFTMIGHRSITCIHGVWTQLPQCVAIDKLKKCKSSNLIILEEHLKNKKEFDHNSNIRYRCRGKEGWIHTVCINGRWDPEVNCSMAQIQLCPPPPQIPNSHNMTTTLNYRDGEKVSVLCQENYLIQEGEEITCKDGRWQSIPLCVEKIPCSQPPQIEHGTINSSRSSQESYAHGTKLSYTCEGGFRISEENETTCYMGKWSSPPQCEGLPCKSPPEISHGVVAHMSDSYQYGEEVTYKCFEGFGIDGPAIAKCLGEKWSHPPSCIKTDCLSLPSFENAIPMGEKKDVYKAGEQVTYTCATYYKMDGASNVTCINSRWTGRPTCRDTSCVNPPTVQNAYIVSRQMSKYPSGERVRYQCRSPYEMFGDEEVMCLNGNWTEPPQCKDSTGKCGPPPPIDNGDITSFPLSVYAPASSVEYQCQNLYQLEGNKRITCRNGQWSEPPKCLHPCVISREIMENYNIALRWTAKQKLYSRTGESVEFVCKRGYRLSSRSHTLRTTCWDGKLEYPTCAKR

[8] = molecular target: T7, non-reduced CFHR4; assay: ELISA, non-reduced antigen
T7 construct: not reduced; also called CFHR4 (NON-REDUCED)

[9] = molecular target: T8, non-reduced CFHR3; assay: ELISA, non-reduced antigen
T8 construct: also called CFHR3 (NON-REDUCED)
T8 chain: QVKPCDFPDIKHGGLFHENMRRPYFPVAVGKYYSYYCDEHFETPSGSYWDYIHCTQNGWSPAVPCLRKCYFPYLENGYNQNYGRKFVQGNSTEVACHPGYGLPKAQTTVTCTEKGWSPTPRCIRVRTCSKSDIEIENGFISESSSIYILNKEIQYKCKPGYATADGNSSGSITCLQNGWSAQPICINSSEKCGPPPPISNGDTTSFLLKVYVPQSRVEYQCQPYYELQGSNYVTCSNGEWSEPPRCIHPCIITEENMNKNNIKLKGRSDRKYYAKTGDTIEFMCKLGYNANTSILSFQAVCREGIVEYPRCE

[10] = molecular target: T9, non-reduced CFHR5; assay: ELISA, non-reduced antigen
T9 construct: also called CFHR5 (NON-REDUCED)
T9 chain: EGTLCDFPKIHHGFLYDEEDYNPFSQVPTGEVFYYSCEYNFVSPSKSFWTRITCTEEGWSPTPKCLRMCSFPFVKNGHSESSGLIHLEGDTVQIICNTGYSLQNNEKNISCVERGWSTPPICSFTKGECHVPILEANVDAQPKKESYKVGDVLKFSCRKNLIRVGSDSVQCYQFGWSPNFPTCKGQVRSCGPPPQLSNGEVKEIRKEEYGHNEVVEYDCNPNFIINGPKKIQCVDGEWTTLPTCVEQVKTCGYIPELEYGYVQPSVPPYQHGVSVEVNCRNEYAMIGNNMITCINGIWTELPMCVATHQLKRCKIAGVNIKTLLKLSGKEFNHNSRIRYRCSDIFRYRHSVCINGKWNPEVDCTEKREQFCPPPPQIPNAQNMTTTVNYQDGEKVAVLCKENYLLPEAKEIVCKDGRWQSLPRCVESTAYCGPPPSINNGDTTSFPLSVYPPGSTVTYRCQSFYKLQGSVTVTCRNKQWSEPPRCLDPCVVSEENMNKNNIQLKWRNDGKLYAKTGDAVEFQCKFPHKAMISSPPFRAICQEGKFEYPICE

[11] = molecular target: T10, non-reduced CFHR2; assay: ELISA, non-reduced antigen
T10 construct: also called CFHR2 (NON-REDUCED)
T10 chain: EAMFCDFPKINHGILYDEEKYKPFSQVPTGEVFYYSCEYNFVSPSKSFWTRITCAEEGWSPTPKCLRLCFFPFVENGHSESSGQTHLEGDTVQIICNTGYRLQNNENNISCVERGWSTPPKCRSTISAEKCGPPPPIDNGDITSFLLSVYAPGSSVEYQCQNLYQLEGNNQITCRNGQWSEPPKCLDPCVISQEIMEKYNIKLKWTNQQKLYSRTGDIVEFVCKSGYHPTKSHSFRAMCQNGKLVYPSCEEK

[12] = molecular target: T11, non-reduced CFHR1; assay: ELISA, non-reduced antigen
T11 construct: also called CFHR1 (NON-REDUCED)
T11 chain: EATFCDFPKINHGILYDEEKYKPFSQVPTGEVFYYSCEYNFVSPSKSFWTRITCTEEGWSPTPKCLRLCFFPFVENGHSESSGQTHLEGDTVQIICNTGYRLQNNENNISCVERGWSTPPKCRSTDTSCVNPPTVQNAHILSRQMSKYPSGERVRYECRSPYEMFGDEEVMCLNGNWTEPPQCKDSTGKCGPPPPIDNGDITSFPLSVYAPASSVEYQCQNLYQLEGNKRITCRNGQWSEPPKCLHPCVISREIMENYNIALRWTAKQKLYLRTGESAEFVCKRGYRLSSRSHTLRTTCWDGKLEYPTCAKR

[13] = molecular target: T3, reduced CFHR5; assay: phage ELISA on reduced CFHR5 [B]

B1: ATL_0004715 (antibody, human IgG1, kappa, V domains shown)
VH: EVQLVESGGGVVQPGRSLRLSCAASGFTFSRYGMHWVRQAPGKGLEWVAVMSYDGSTKYYADSVKGRFAISRDNPKNTLFLQMNSLRPDDTAVYYCAKGGAAAAVMDVWGKGTTVTVSS
VL: DIVMTQSPDSLTVSLGERATISCKSSQRLLYSSNNKNYLAWYQQKPGQPPKLLMYWASTRESGVPDRFSGSGSGTDFSLTISSLQAEDVAVYYCQQYYNPPWTFGQGTKVEVKR
notes: also called ATL4715
**Q.** With B1 as the binder, how does the “Harsh Heat challenge ELISA value” [1] read?
**A.** 0.09

**Q.** What about the “fold change vs isotype at 1 ug/ml” value [2] of the same binder?
**A.** 17.2 fold

**Q.** What about the “fold change vs isotype at 1 ug/ml” value [3] of the same binder?
**A.** 9.9 fold

**Q.** Does B1 bind [4]?
**A.** no binding (tested: 1 ug/ml)

**Q.** What about the “fold change vs isotype at 1 ug/ml” value [4] of the same binder?
**A.** 1 fold

**Q.** Does B1 bind [5]?
**A.** no binding (tested: 1 ug/ml)

**Q.** And the “fold change vs isotype at 1 ug/ml” value [5]?
**A.** 0.9 fold

**Q.** And the “fold change vs isotype at 1 ug/ml” value [6]?
**A.** 22.9 fold

**Q.** And the “fold change vs isotype at 1 ug/ml” value [7]?
**A.** 10 fold

**Q.** And the “fold change vs isotype at 1 ug/ml” value [8]?
**A.** 0.9 fold

**Q.** Does B1 bind [9]?
**A.** no binding (tested: 1 ug/ml)

**Q.** And the “fold change vs isotype at 1 ug/ml” value [9]?
**A.** 1 fold

**Q.** Does B1 bind [10]?
**A.** no binding (tested: 1 ug/ml)

**Q.** What about the “fold change vs isotype at 1 ug/ml” value [10] of the same binder?
**A.** 0.9 fold

**Q.** And the “fold change vs isotype at 1 ug/ml” value [11]?
**A.** 3.9 fold

**Q.** What about the “fold change vs isotype at 1 ug/ml” value [12] of the same binder?
**A.** 10.1 fold

B2: 4894 phage (scFv)
scFv displayed on phage: QVQLVESGGGVVQPGRSLRLSCAASGFTFSIYGMHWVRQAPGKGLEWVAVMSFDGKTKYYADSVKGRFTISRDNSKNTLYLQMNSLRAEDTAVYYCAKGGATAAVFDSWGQGTLVTVSGGGGSGGGGSGGGGSDIVMTQSPDSLAVSLGERATINCKSSQSLLYRSNNKNYLAWYQQKPGQPPKLLIYWASTRESGVPDRFSGSGSGTDFTLTISSLQAEDVAVYYCQQYYNPPWTFGQGTKVEIK
notes: also called phage displaying the ATL4894 scFv
**Q.** Does B2 bind [13]?
**A.** no binding
